This is an account of results in publication PMC12421856 (mBio, 2025).

Common to all, as to conditions: both partners purified
Experiment [1] deals with trimeric SARS-CoV-2 S ectodomain (insect cell-expressed) (SARS-CoV-2 Wuhan-Hu-1 (MN908947), UniProt P0DTC2, stabilised). The experiment can be described thus: SPR.
The target of the next experiment is SARS-CoV-2 S HexaPro (SARS-CoV-2 Wuhan-Hu-1, HexaPro, stabilised). In words: cryo-EM structure.
In experiment [2] the target is trimeric SARS-CoV-2 S ectodomain (insect cell-expressed) (SARS-CoV-2 Wuhan-Hu-1 (MN908947), UniProt P0DTC2, stabilised). In words: SPR. This is another data set of the same source.

B1: pT1679 Fab (Fab, V domains shown)
VH: QVQLVQSGAEVKKPGSSVKVSCRASGGTFSSYAISWVRQAPGQGLEWMGTIIPVFGAPDYAQKFQGRVTITADESTSTAYMEVRSLRSEDTAVYYCARDASPYYYDRSGYPRWAEDLHHWGQGTMVTVSS
VL: QSVLTQPPSVSGAPGQRVTISCTGSSSNIGAGYDVHWYQQLPGTAPKLLIYGNSNRPSGVPDRFSGSKSGTSGSLAISGLQPEDEADYYCQSYDSSLSGSIFGGGTKLTVL
notes: also called Fab fragment of pT1679; source: Drosophila S2 cells, purified (Strep-Tactin XT, SEC)
On to B1, for which the “fold higher affinity than for the RBD” value in experiment [1] was around 3 fold.

B2: pT1679 Fab (Fab, V domains shown)
VH: B1 VH
VL: B1 VL
notes: source: Drosophila S2 cells, purified (Strep-Tactin XT, SEC)
For the molecule B2, the “stoichiometry N” value in the experiment with SARS-CoV-2 S HexaPro is 3 pT1679 molecules per trimeric S protein. In experiment [2], this molecule gave a Kd of 0.13 nM, a koff of 0.00012 s⁻¹ and a kon of 900000 M⁻¹ s⁻¹.
